Experimental data: the supplement of paper PMC9112550, “Optimization of the antimicrobial peptide Bac7 by deep mutational scanning” (BMC Biology, 2022)

What follows are sequences tested on Escherichia coli TOP10 (assay: shrunken log2 fold change of peptide-encoding DNA abundance (4.5 h post-induction vs induction); higher = less antimicrobial activity (less host growth inhibition)). Details: time post-induction: 4.5 h; library: site-saturation at positions 5, 18, 19, 20.
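Further: peptides expressed intracellularly from a pBAD plasmid library in pooled LB shake-flask culture, induced with 0.3% L-arabinose, DNA abundance read by NGS, three biological replicates, DESeq2 with apeglm shrinkage.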

Sequence | shrunken log2 fold change
RRIRGRPPRLPRPRPRPWTVPRP | -0.0833
RRIRPRPPRLPRPRPRPGQSPRP | 0.421
RRIRRRPPRLPRPRPRPEVKPRP | 0.418
RRIRRRPPRLPRPRPRPSVSPRP | -0.0175
RRIRARPPRLPRPRPRPTQGPRP | 0.905
RRIRRRPPRLPRPRPRPDCQPRP | -0.00305
RRIRQRPPRLPRPRPRPADFPRP | -0.193
RRIRWRPPRLPRPRPRPGQVPRP | -0.0635
RRIRIRPPRLPRPRPRPSPAPRP | -0.11
RRIRSRPPRLPRPRPRPPYCPRP | -0.031
RRIRSRPPRLPRPRPRPSRIPRP | -0.106
RRIRHRPPRLPRPRPRPWNCPRP | -0.366
RRIRVRPPRLPRPRPRPESGPRP | 0.177
RRIRQRPPRLPRPRPRPMERPRP | 0.301
RRIRNRPPRLPRPRPRPNTQPRP | -0.148
RRIRNRPPRLPRPRPRPPIRPRP | 0.0511
RRIRCRPPRLPRPRPRPISDPRP | -0.237
RRIRWRPPRLPRPRPRPGSAPRP | 0.432
RRIRYRPPRLPRPRPRPRMPPRP | -0.354
RRIRQRPPRLPRPRPRPQDFPRP | -0.372
RRIRDRPPRLPRPRPRPVCFPRP | 0.599
RRIRARPPRLPRPRPRPSMEPRP | 0.146
RRIRSRPPRLPRPRPRPEMYPRP | -0.0223
RRIRHRPPRLPRPRPRPSIVPRP | -0.0474
RRIRFRPPRLPRPRPRPIEFPRP | 0.0129

Sequence | shrunken log2 fold change
RRIRKRPPRLPRPRPRPFENPRP | 0.167
RRIRFRPPRLPRPRPRPKTNPRP | 0.0585
RRIRNRPPRLPRPRPRPAFMPRP | 0.0417
RRIRPRPPRLPRPRPRPKKCPRP | -0.352
RRIRGRPPRLPRPRPRPMNDPRP | 0.337
RRIRCRPPRLPRPRPRPWTHPRP | -0.325
RRIRIRPPRLPRPRPRPWRYPRP | -0.0701
RRIRSRPPRLPRPRPRPMSVPRP | -0.0847
RRIRRRPPRLPRPRPRPNWMPRP | 0.0739
RRIRCRPPRLPRPRPRPLFYPRP | -0.764
RRIRFRPPRLPRPRPRPATNPRP | -0.213
RRIRGRPPRLPRPRPRPTYSPRP | -0.0883
RRIRIRPPRLPRPRPRPMAWPRP | 0.0272
RRIRQRPPRLPRPRPRPMEQPRP | -0.074
RRIRCRPPRLPRPRPRPTQWPRP | 0.202
RRIRYRPPRLPRPRPRPVMHPRP | -0.338
RRIRLRPPRLPRPRPRPVGKPRP | -0.0227
RRIRYRPPRLPRPRPRPFIAPRP | -1.12
RRIRSRPPRLPRPRPRPEIPPRP | 2.86
RRIRGRPPRLPRPRPRPVAQPRP | 0.719
RRIRARPPRLPRPRPRPSTGPRP | -0.131
RRIRVRPPRLPRPRPRPCMDPRP | -0.836
RRIRIRPPRLPRPRPRPRCMPRP | -0.284
RRIRERPPRLPRPRPRPVWDPRP | 0.00068
RRIRVRPPRLPRPRPRPSRFPRP | -0.0691

Sequence | shrunken log2 fold change
RRIRERPPRLPRPRPRPVVRPRP | 0.0531
RRIRQRPPRLPRPRPRPRAPPRP | 0.749
RRIRIRPPRLPRPRPRPFNNPRP | -0.318
RRIRMRPPRLPRPRPRPAFRPRP | 0.214
RRIRYRPPRLPRPRPRPNRFPRP | -0.00943
RRIRHRPPRLPRPRPRPSSVPRP | 0.0608
RRIRNRPPRLPRPRPRPTQFPRP | 0.138
RRIRNRPPRLPRPRPRPYEKPRP | -0.0332
RRIRWRPPRLPRPRPRPCNLPRP | -0.161
RRIRGRPPRLPRPRPRPWGIPRP | 0.0344
RRIRCRPPRLPRPRPRPVFIPRP | -0.612
RRIRMRPPRLPRPRPRPVINPRP | -0.305
RRIRWRPPRLPRPRPRPKHHPRP | -0.208
RRIRARPPRLPRPRPRPIDVPRP | -0.641
RRIRIRPPRLPRPRPRPWLSPRP | -0.238
RRIRHRPPRLPRPRPRPWVMPRP | -0.166
RRIRERPPRLPRPRPRPVHKPRP | -0.581
RRIRDRPPRLPRPRPRPPTEPRP | 0.274
RRIRERPPRLPRPRPRPTGSPRP | -0.211
RRIRMRPPRLPRPRPRPCDHPRP | 0.00316
RRIRARPPRLPRPRPRPAGHPRP | 0.398
RRIRARPPRLPRPRPRPDRLPRP | -0.0424
RRIRSRPPRLPRPRPRPACKPRP | -0.146
RRIRARPPRLPRPRPRPWCCPRP | 0.104
RRIRLRPPRLPRPRPRPAMNPRP | -0.397
